Assay results published in the DeepSol protein solubility set.

Test: soluble on expression in E. coli; label from the status in PepcDB or PDB records

Sequence	soluble on expression in E. coli
MAPRDIRPGAEYGDIIEEAIVTCKVFLIVFSETSQISRWVRSELNIGFSSNKPIIPFRIDPTDLKGSMKLMLNDKHWLNAYPNPEEKFSELAAVILDLLQHPAVDTISPPGFQPASNVASADGSNAGAQGLFGKLLNQLFVKRRVKVTSDHAAEIFLNGERKGKLDAYETGNYSVSEDFYQLEVYSCEYGKKVKCEYSGSFSNSSTVIISVDMATAEKQYLMKAKNITSGQINDLGIIFLDEGKFEDAQECFLKAASMGEAAAAYNLGMMYHFGKGVEIDYDVAREYYEEAVKSDYPLALNNLGSIYYNGHGVRKDIAKSFPYFCRAAERGVESAQFTVATMLFYGQGVAVDKAKAKKWFQKAAAQGCKDSQNYLNSWVDDLEHHHHHH	soluble
MAETVESSLAKSHIEGSFTNVWKDDKTLDWYANYEGILWKATGVVVITGDETQVYAIWVPVGLAIPENEGGGSEGGGSEGGGSEGGGTKPPEYGDTPIPGYIYINPLDGTYPPGTEQNPANPNPSLEESHPLNTFMFQGNRFRNRQGALTVYTGTVTQGTDPVKTYYQYTPVSSKAMYDAYWNGKFRDVAFHSGFNEDPLVAEYQGQLSYLPQPPVNAPSGHHHHHH	soluble
GPLGSPEFPGAFRTQKPSLNTVNVVGSSMGSGGVFTIDGKIKCVTAAHVLTGNSARVSGVGFNQMLDFDVKGDFAIADCPNWQGVAPKAQFCEDGWTGRAYWLTSSGVEPGVIGNGFAFCFTACGDAGSPVITEAGELVGVHTGSNKQGGGIVTRPSGQFCNVKPIKLSELSEFFAGPKVPLGDVKIGSHIIKDTCEVPSDLCALLAAKPELE	soluble
MGSDKIHHHHHHMPYTIPNNSCVGCDNCRPQCPTGAIKIEDNEYWVDPGLCNNCEGYYSEPQCVIACPTKSPIPWQAKKGRCKVEPRDSTSLDLFSNGKNNPFASAIAIWEACNVLGQRTSLHWETDEDGYLCYSRQVNQGKGAIAFHIQDPFQVNDKATDIAAIEALDIRAACIHLIFAGYATALEQPWEQEFAIDERQIEKYLGMEKRKDLSKAAKLALMKNLVQQACSLIISIDWPQQGRINGFSVTNSRLWHLVDIQHHFQEDNHGCKYLIGLTFKVKAGLWAQYFLNKQACKERTAFYQYGSLPKTLLTTVMSIWQQHEGAVRLMLWLLFKTKMGKEQRITIPTLLRIAYGEEKVALASRQREERKRLLRTFESDLEILNHYGMKPLFDPVTYPPEIQPLWAKLIDLPEDPDEALEFWTNDGGSETRLTDTGPRGKWNLLMNARILAFELPPEWEQQISESEKKKTRTAKAKKKTKATNDLLGEQILQARKNLNLSQRELAKLTGKSQSWIRDIENGRLKAKLEDQLLLRKVLNMASS	not soluble
MGSDKIHHHHHHMTRSAEPRVLQFCHGYDGPFLDCARQYASLFAGTPYKVTTVFLTGRSDPEVAARCASDEVLFLEYGSRDIRGLKLKAIRDLREIARSRDFRFCIAHRFKPIWIASLATRLPIVGVHHAFGDYQRLSRKVFAGLMSKRLSLLAVSDAVRDDIRRCLPKWPAERIETLYNRIDVAALQAEQVERLSARRQLRLPDEAWVVGNVGRLHPDKDQATLLRGFAAALPRLPQNSLLAILGSGRLEEQLKDLACELGIGERVLFLGQVEEARRYFKAFDAFALSSDHEPFGMVLLEAMVAGVPLIATACGGAREVVEGVGILFPLGDETALAEGLTHLAALDRRQREACARLMLERLETRFSDAAVRREFWRLPTIAGFASESAC	not soluble
MATLLFFSKPISDFVLGDKVGFDAKILESNDRILLIKPLQIGVDSNISVIDNEGKIFSFYVFSTTFTSSKHPNLQVFIEDKNYYSNAFLKPQKENMAENAPKDAPTNNKPLKEEKEETKEKEEETITIGDNTNAMKIVKKDIQKGYKALKSSQRKWYCLGICSKKSKLSLMPKEIFNDKQFTYFKFDKRLALSKFPVIYKVVDGYDNPVNTRIVGDYIIAEDVSAKWTLRLGKDYLCIRFVKKAKDE	not soluble
MLEIRHLKTLHALREADSLVDAAERLHLTQSALSHQFKELEERMGMPLFVRKTKPVRFTSAGLRLLQLADSMLPQLRSAERDIARLAGGTAGRLHMAIECHSCFQWLMPTIDQFRDAWPEVELDLSSGFSFAPLPALARGDLDLVVTSDPLELPGITYVPLFTYEAMLAVANQHALASKPYIVPEDLLPETLITYPVERDRLDIFTRFLEPADIEPAQVRTSELTVMMMQLVASGRGVCGMPHWALHEYSSRGYVKAKRLGEKGLFATLYAGIRADMLDAPYMRDFLLTAKDTSFSTLDGVSVVR	not soluble
MAHHHHHHMRGQRSGKFAEYTATYAILKRIGLHQTVLIEKRDASVGYGVYVRDACDSGTPLLVVPSRHAFSLSTVQKLGARVRQEDLMQSPQLEILNRGVLSRLLGCTAGEWISLAWRLAIEHQRSLSPWWGWLNVLPRMQDFRTMEDESGRQCRLHRVQLLPYFIEVQGSMQEEICSAYEVLSEKNLMPSPNHFRWAVDVILTRSHRLPACWTNGEGSSVELGIIPFVDLVNGDDGGERRRNARVEVAFEVEELPRWYRDEFLQESERRHVNGEEALRRLLEEHFFALVALERDLTASEEVIMEYELVPWVTGALSHEDDLLLGRLLRYRF	not soluble
NIYDSANELSRGLRGLPEYKAVKAAKDAIAADAEASKIFTDYLAFQEEIQKLAQTGQMPDASFQAKMEGFGKQIQGNSLLSEFFTKQQQLAIYLSDIEKIVFEPVSELLK	not soluble
MNYLQYYPTDVINGEGTRCTLFVSGCTHACKGCYNQKSWSFSAGVLFDDVMEQQIINDLKDTRIKRQGLTLSGGDPLHPLNVETLLPFVQRVKRECPDKDIWVWTGYKLDELDKQQRAMLPYIDVLIDGKFIQEQADPSLVWRGSANQIIHRFKLLEHHHHHH	soluble
MSLKDTFSVLLIEDSNADYRLIQEYLGESQSPSFQISRSTDFSAGLSFITNESPDLVMLDLSLPDRTGLEALSEIKRKFPQIPVIICSGAEDKDITVNALQIGAQDYVYKGKFDSYSLSRSLVFAYERNRLALELEKKSVFEQESEERYRLFFQYNPHPAFLFEHDSLEILEINRAVLEKYGYEEKDLIGKSILQIFELSDFDKVKQEIIFFQFGANQASSFVHKKKNGEKLIADTTVYKFRYQNQILDLAVVTDITEMVRNRESILATLAEKDALIQEIHHRVKNNMQIMISLLNLQADNAMSRNLTAKELYNLLKDTESRVFSMSLVHNELYKSNDLSHVDFHSYLNMLLENLWNLYGVGLKIKHLVEAQGLVLSMNIAISLGLIVCELVTNAIKHAFPDGYEGLLKIFARCELGSTIVTIEDNGKGIPKEMISKNHETLGLQLVNILTKQIQGKLHLEVLDPGTKFEIRFPEQKGTVQRKEGHHHHHH	not soluble
QDFAEIYARFSDERANEQANRCSQCGVPFCQVHCPVSNNIPDWLKLTSEGRLEEAYEVSQATNNFPEICGRICPQDRLCEGNCVIEQSTHGAVTIGSVEKYINDTAWDQGWVKPRTPSRELGLSVGVIGAGPAGLAAAEELRAKGYEVHVYDRYDRMGGLLVYGIPGFKLEKSVVERRVKLLADAGVIYHPNFEVGRDASLPELRRKHVAVLVATGVYKARDIKAPGSGLGNIVAALDYLTTSNKVSLGDTVEAYENGSLNAAGKHVVVLGGGDTAMDCVRTAIRQGATSVKCLYRRDRKNMPGSQREVAHAEEEGVEFIWQAAPEGFTGDTVVTGVRAVRIHLGVADATGRQTPQVIEGSEFTVQADLVIKALGFEPEDLPNAFDEPELKVTRWGTLLVDHRTKMTNMDGVFAAGDIVRGASLVVWAIRDGRDAAEGIHAYAKAKAEAPVAVAAE	soluble
MAHHHHHHMDSEKNSPLEYQETMNDLGEDIEDMEAQSINHGEAKMSVDIKSGKGDKGGEEVDVADAENVESNADNALYIYSTDSAKNILKENLEDYLKQLDFYKSNPKCKIDPAIYMEGTEEVENYVVKEKILITTYYQYIDMYESSIDVEEDLEREEIVYVEVPKYIIKYNPKVITNYIEKTIEVPSGEEIKRPVYKKLNVPYVVPHVVENETQVVLKKIVQPEIHTSNEEIEVEVQKYVPRLVPVNVYVPRYFGLSAKTTDEVEESVHYADLTQEQTDYLMKELNPHLDDLKKFNEEQLERMNEYIRESAQQAESHDLNPPKPELVSYDLDGSIQTLDYSDFTQFKEICQRELTC	soluble
MPFEIGTMPIMSIDPKLLEVLACPQDKGPLKYLEAEQVLVNERLEIAYRIDDGIPVMLVDESIAWPPAEKAAALEHHHHHH	not soluble
MSLTKDILILAVETSCDETSVSVIKNGRDILSNTVLSQIESHKRFGGVVPEVASRHHVEGITTTINEALVDADVSMEDIDAIAVTEGPGLIGALLIGVNAAKALAFAYDKPLIPVHHIAGHIYANHIEEPLTFPLIALIVSGGHTELVYMKDHLSFEVIGETRDDAVGEAYDKVARTIGLNYPGGPQVDRLAAEGEDTYSFPRVWLDKDSYDFSFSGLKSAVINQLHNQRQKNIPIIEANVATSFQNSVVEVLTFKAIQACKEYSVQRLIVAGGVASNKGLRQSLADQCKVNDIQLTIPSPKLCTDNAAMIGVAGHSLYQQGRFADLALNGHSNIDLEEYSAEEGHHHHHH	soluble
MRPQNTNGDFYVDTTCIDCDTCRWMTPEVFHRVDEMSAVYHQPTNETERLAALQALLSCPTSSIGTVEKLEHHHHHH	not soluble
MRVAFCLYKYFPFGGLQRDFMRIAQTVAARGHQVRVYTQSWEGECPDNFELIRVPVKSRTNHGRNAEYYAWVQHHLRDHPVDRVVGFNKMPGLDVYYAADVCYAEKVAQEKGFFYRLTSRYRHYAAFERATFEHGKPTQLLMLTNKQIADFQKHYQTEAERFHILPPGIYPDRKYSQQIPNSRQIYRQKNGISEQQKLLLQVGSDFTRKGVDRSIEALASLPESLRQNTVLYVVGQDKPKKFAALAERSGVGTNVHFFSGRNDIAELMAAADLLLHPAYQEAAGIVLLEAITAGLPVLTTAVCGYAHYIVDANCGEAMTEPFRQDALNEVLLKALTQPSLRNAWAENARYYADTQDLYSLPEKAADIITGDLDG	not soluble
MFCTSEAAVDMDSGRGDIRRLKDGEILKYTSGIFSSKWKKMYAVLFSDSRLVWFENRGDRKPKGSVLLKDVIPYICVGLMTDRMPVKRPNVPEGNSVHHLVGIGMNPKADPCHWILFSSDSDIESWFTEITKTLPKPANPPPNAPQQGPGAQPPQQQNNGGYVPPTVYPSAPPPVQPGYNPRPASGQSYPSGPQVPPAYGQYPQPGYPQPAGVPTSSHTTVIVRDGGYGGGGYGGYGGGGGGFGSTGLGFGSGILAGSLLGYGLGSMWGGHHSYGGWGGGYGGGGYGMAGGYYSDNDTTVTNNYYNYGDNDNNGGNNHSSSSNAITDAPGNAGDQSQQQSDNNYGNANQDSYDQGNDYGNDYGNAGYDSGDFGGGDYGGGGYDSGDFGGGDFGGGDFGGGDFGGGDY	not soluble
MNRSRDKVRCALNHQNAGSIPVDFGSTAVTGIHCRIVEALRNYYGLAPRPVKIVDAFQMLGEIDAELAEKIGVDCIGIGGPKDIFDLDTTRMHEQTTPWGQRVLVPEAMDLTPDMRGDVYVYAGGDQNYPPSAVMPKGCYFINAIERQQPIEEDRLDPEDNVEEFGLLTENDLAYYCAEADKAYQTGRAVVASFGGTALGDVAFVPGMGLKQPKGIRSVVEWYMSTAMRQDYLHQVFEKEIDIAIANYEKLWAALGDKIDVVLTCGTDFGSQESQFCSIDTFRELWLPHYRRMNDWIHQHTTWKIFKHSCGAIIPILPGLIEAGFDIINPVQINAKDMDSRRLKEEFGSQLTFWGGGVDTQKILPFGTPDEIRRHVMGQCEILGRDGGFVFNAVHNVQANVPVDNVVAMFDALKDISLEHHHHHH	not soluble
